Measurements: patent US20240358813A1
Read-outs that look alike come from different tables or passages of the source.

Legend:
[1] = target: gp42 wild-type (1-223) (Epstein-Barr virus) (UniProt P03205); experiment: flow cytometry, stable CHO cells kept in 10 µg/ml puromycin, mAb at 1:200, goat anti-mouse IgG Alexa Fluor 488
[2] = target: gp350-F: EBV gp350 (1-864) ectodomain fused to the Newcastle disease virus fusion protein (NDV-F) tr (Epstein-Barr virus; Newcastle disease virus) (UniProt P03200)
Chain of UniProt P03200 (P03200 1-864): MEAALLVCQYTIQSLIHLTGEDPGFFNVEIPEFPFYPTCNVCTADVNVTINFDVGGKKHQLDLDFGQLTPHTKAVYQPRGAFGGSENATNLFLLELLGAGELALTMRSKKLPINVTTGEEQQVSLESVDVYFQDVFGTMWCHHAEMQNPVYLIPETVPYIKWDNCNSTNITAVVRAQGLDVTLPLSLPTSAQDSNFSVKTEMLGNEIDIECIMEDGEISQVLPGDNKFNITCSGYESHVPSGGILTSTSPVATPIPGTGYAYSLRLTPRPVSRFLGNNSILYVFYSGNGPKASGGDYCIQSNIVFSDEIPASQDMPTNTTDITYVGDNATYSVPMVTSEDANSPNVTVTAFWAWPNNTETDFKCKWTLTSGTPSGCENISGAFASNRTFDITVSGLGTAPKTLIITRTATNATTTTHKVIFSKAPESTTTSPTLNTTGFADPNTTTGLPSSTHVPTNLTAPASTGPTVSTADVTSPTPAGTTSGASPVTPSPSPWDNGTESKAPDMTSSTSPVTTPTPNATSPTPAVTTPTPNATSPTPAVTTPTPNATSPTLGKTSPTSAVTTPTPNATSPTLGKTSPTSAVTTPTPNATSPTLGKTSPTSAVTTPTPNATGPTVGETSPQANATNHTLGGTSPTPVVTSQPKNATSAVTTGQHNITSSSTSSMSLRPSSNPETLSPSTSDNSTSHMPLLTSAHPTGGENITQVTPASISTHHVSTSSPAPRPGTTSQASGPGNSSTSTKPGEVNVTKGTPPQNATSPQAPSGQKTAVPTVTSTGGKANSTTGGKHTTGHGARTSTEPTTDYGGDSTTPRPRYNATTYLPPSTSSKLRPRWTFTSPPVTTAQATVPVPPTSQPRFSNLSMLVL

[3] = target: gp350-F: EBV gp350 (1-864) ectodomain fused to the Newcastle disease virus fusion protein (NDV-F) tr (Epstein-Barr virus; Newcastle disease virus) (UniProt P03200); experiment: flow cytometry, […], mAb at 1:200, […]
[4] = target: gp350-F: EBV gp350 (1-864) ectodomain fused to the Newcastle disease virus fusion protein (NDV-F) tr (Epstein-Barr virus; Newcastle disease virus) (UniProt P03200); remark: listed apart in the source

Chain of UniProt P03205 (P03205 whole entry, the tested form may be a part): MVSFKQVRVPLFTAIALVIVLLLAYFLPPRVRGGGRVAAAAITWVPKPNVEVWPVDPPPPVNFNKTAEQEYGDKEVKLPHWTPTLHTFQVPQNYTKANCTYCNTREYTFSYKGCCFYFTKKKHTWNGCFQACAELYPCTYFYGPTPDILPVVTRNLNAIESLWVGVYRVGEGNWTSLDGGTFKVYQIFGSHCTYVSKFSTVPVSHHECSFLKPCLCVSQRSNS

anti-gp42 mAb (F-2-1) (antibody)
percent positive cells [1]: > 90%

anti-gp350 mAb 2L10 (antibody)
percent positive cells [2]: > 90%

anti-gp350 monoclonal antibody (mAb) 72A1
percent positive cells [3]: > 90% | percent positive cells [4]: 95%
